Target: prolactin (PRL), human, untagged (serum PRL; PRL used in cell cultures) (human, UniProt P01229)
Test: cell-based or functional assay

- PRL-driven growth of Nb2 cells (3H-thymidine): ≤ 8 fold
B1: His-tagged cyclophilin B (CypB), recombinant, purified from Drosophila S2 cells (enzyme, not shown: small tags and cut ends)
chain: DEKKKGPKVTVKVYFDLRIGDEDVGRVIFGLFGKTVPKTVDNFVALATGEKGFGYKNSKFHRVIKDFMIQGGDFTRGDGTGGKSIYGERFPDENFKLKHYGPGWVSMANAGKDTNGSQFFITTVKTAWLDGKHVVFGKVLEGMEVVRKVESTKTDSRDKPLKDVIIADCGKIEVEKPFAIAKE
